Measurements from patent US20230295347A1 (published 2023).

Experiments:
[1] = molecular target: T1, cysteine-rich domain (CRD) of human Fzd4 (UniProt Q9ULV1 40-161); test: BLI
T1 chain: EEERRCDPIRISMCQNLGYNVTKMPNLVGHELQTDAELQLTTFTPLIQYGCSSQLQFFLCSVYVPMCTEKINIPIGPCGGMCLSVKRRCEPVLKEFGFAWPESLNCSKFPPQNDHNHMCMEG

[2] = molecular target: T1, cysteine-rich domain (CRD) of human Fzd4; test: SPR; apparent KD, average of four capture concentrations

Kd [1]: 44.7 nM
Kd [2]: 729 nM
B1: 4SD1-03_LALAPG (bispecific antibody)
heavy: EVQLVESGGGLVKPGGSLRLSCAASGFTFTNYAMSWVRQAPGKGLEWVSAISGSGGSTYYADSVKGRFTISRDDSKNTLYLQMNSLKTEDTAVYYCARATGFGTVVFDYWGQGTLVTVSSASTKGPSVFPLAPSSKSTSGGTAALGCLVKDYFPEPVTVSWNSGALTSGVHTFPAVLQSSGLYSLSSVVTVPSSSLGTQTYICNVNHKPSNTKVDKKVEPKSCDKTHTCPPCPAPEAAGGPSVFLFPPKPKDTLMISRTPEVTCVVVDVSHEDPEVKFNWYVDGVEVHNAKTKPREEQYNSTYRVVSVLTVLHQDWLNGKEYKCKVSNKALGAPIEKTISKAKGQPREPQVYTLPPSREEMTKNQVSLTCLVKGFYPSDIAVEWESNGQPENNYKTTPPVLDSDGSFFLYSKLTVDKSRWQQGNVFSCSVMHEALHNHYTQKSLSLSPGK
light: not shown
